Test results: article PMC7746861, “Acetate Metabolism in Archaea: Characterization of an Acetate Transporter and of Enzymes Involved in Acetate Activation and Gluconeogenesis in Haloferax volcanii” (Frontiers in Microbiology, 2020)
Read-outs that look alike come from different tables or passages of the source.

Legend:
[1] = target: Malic enzyme Mae1 from Haloferax volcanii, recombinant (Haloferax volcanii); assay: SEC; Superdex 200 HiLoad column (1.6 x 60 cm), flow rate 1 ml per min, calibrated with HMW and LMW kits (GE Healthcare); native mass compared with the subunit mass by SDS-PAGE; 50 mM Tris-HCl, pH 7.5, 1.5 M KCl
purified protein [2] = substrate: CC(=O)O; assay: purified protein; settings: acetate activation, ATP, CoA
purified protein [3] = substrate: CC(C)(COP(=O)(O)OP(=O)(O)OC[C@H]1O[C@@H](n2cnc3c(N)ncnc32)[C@H](O)[C@@H]1OP(=O)(O)O)[C@@H](O)C(=O)NCCC(=O)NCCS; assay: purified protein; assay type: biochemical, Haloferax volcanii; settings: acetate activation, ATP, CoA
purified protein [4] = substrate: Nc1ncnc2c1ncn2[C@@H]1O[C@H](COP(=O)(O)OP(=O)(O)OP(=O)(O)O)[C@@H](O)[C@H]1O; assay: purified protein; assay type: biochemical, Haloferax volcanii; settings: acetate activation, ATP, CoA
[5] = target: the molecule itself; assay: SEC; Superdex 200 HiLoad column (1.6 x 60 cm), flow rate 1 ml per min, calibrated with HMW and LMW kits (GE Healthcare); native mass compared with the subunit mass by SDS-PAGE; 50 mM Tris-HCl, pH 7.5, 1.5 M KCl
[6] = target: the molecule itself; assay: as above; remark: listed apart in the source
purified protein [7] = substrate: CC(=O)SCCNC(=O)CCNC(=O)[C@H](O)C(C)(C)COP(=O)(O)OP(=O)(O)OC[C@H]1O[C@@H](n2cnc3c(N)ncnc32)[C@H](O)[C@@H]1OP(=O)(O)O; assay: purified protein; assay type: biochemical, Haloferax volcanii; settings: acetate formation (reverse), AMP, PPi, MgCl2, 2 M KCl, pH 7.0, 42°C
purified protein [8] = substrate: NC(=O)c1ccc[n+]([C@@H]2O[C@H](COP(=O)(O)OP(=O)(O)OC[C@H]3O[C@@H](n4cnc5c(N)ncnc54)[C@H](OP(=O)(O)O)[C@@H]3O)[C@@H](O)[C@H]2O)c1; assay: purified protein; assay type: biochemical, Haloferax volcanii; settings: varied: cofactor
purified protein [9] = substrate: NC(=O)c1ccc[n+]([C@@H]2O[C@H](COP(=O)(O)OP(=O)(O)OC[C@H]3O[C@@H](n4cnc5c(N)ncnc54)[C@H](O)[C@@H]3O)[C@@H](O)[C@H]2O)c1; assay: purified protein; assay type: biochemical, Haloferax volcanii; settings: 10 mM malate, MnCl2, […] KCl, pH 7.0, 42°C, varied: cofactor
purified protein [10] = substrate: O=C(O)C[C@H](O)C(=O)O; assay: purified protein; settings: NADP+, MnCl2, 4 M KCl, pH 5.75, 42°C, pH 5.75
purified protein [11] = substrate: NC(=O)C1=CN([C@@H]2O[C@H](COP(=O)(O)OP(=O)(O)OC[C@H]3O[C@@H](n4cnc5c(N)ncnc54)[C@H](OP(=O)(O)O)[C@@H]3O)[C@@H](O)[C@H]2O)C=CC1; assay: purified protein; assay type: biochemical, Haloferax volcanii; settings: reverse reaction, pyruvate, NaHCO3, MnCl2, 4 M KCl, pH 5.75, 42°C, varied: cofactor
[12] = recombinant, MgCl2, 2 M KCl, pH 7.5, 42°C, pH 7.5
[13] = recombinant, MgCl2, 2 M KCl, pH 7.5, 42°C
[14] = MgCl2, 1 M KCl, pH 7.0, 42°C, pH 7.0

Malic enzyme Mae1 from Haloferax volcanii, recombinant
stoichiometry N [1]: 8

B1: ACS2 (Haloferax volcanii DS2) (protein)
chain: MKKPLLVTEFLDRARRYYGDEEAVVATTGERFTYDELGERADGFSAALQSRGVEKGDRVAVLDPNTHYHLEAAYGSMQLGAVHMPLNYRLVPADFEYVLNDADVTAVYADYAFAEKIDAVRDEIPAEIFVTNDPEKAAESTDGEWLDFDELVAESTDYERPEMDEDDIITINYTSGTTGDPKGVCRTHRAETIHAYLISMHQDIGDDDVYLWTLPMFHVNGWGHIYAITGHGAKHVCTRGVEAEAVLDAIRDEDVSYLCAAPTVLNILMKHYREEGGVETTGASPVRAATAGAAPPEATIRTVEDEFGWRLMHVYGATETGPLITTSEAGRYLTDGDDRFGVKKKQGIGYLGTDVRVVDEDGTDVPRDEQSVGEIVVTGNQVMEKYWNKPEETEEAFSARLEGYYHMGDLAVVDENGFISIQDRKKDIIISGGENISSIELEDTLFDHDEVADVAVIPVPSDEWGESPKAFVVPTSGDPDAPGVTAEALIAFCRERIATYKVPKEVEFVTELPKTATGKVQKYELREREWEDEGRMMGEG
notes: full length, Ni-NTA purified (pTA963), homologous expression in H. volcanii
Km (purified protein [2]; [12]): 1.5 mM | Vmax (purified protein [2]; [12]): 1.5 µmol/min/mg | Km (purified protein [3]; [13]): 2.21 mM | Km (purified protein [4]; [13]): 0.43 mM

B2: AMP-forming acetyl-CoA synthetase ACS2 purified from acetate-grown Haloferax volcanii cells (enzyme, UniProt D4GUW5 1-540, looked up)
chain: B1 chain
notes: AMP-forming acetyl-CoA synthetase ACS2 of Haloferax volcanii, gene acs2, locus tag HVO_0896; identified by MALDI-TOF MS of the 69 kDa subunit; Native enzyme, no tag; also called HVO_0896
stoichiometry N [5]: 2

B3: AMP-forming acetyl-CoA synthetase ACS2 from Haloferax volcanii, recombinant (enzyme, UniProt D4GUW5 1-540, looked up)
chain: B1 chain
notes: AMP-forming acetyl-CoA synthetase ACS2 of Haloferax volcanii, gene acs2, locus tag HVO_0896; calculated subunit 59.8 kDa; gene amplified from genomic DNA; also called recombinant ACS2; HVO_0896; source: H. volcanii H1209 (plasmid pTA963, homologous overexpression), purified (Ni-NTA, size exclusion chromatography)
stoichiometry N [6]: 2

B4: AMP-forming acetyl-CoA synthetase ACS9 from Haloferax volcanii, recombinant (enzyme, UniProt D4GRL3 1-538, looked up)
chain: MKKQLLVTDFLDRARTYYGDYEAVVGVDGERFTYAEFGERVDRFSAALQSRGVEKGDRVAVLDPNTHYHLEAAFGAMQCGALHVPLNYRLTTDDYEYLLSDSGATVVYADYQYAGKIEAVRDDVPAEVFVTNDPAAVDGDWLDFEAFLDEADADDYERPEMSEDELITINYTSGTTGDPKGVCRTHRTESLHAQLVTIHHHIGDDDVYLWTLPMFHVNGWGHIYAVTGRGAKHVCTRGVEAEAVFDAITEEDVSFFCCAPTVLSILREYAEEHDPAYAGDNPVRVTAAGSAAPSATIRHTESEFGWEFTQLYGATETGPLIATSDANRLIPDEGGLRFSLKQRQGVAPLGTDLRVVDDDGEQVPRGDATIGEVVVRGNQVMEKYWNKPDETHDAFNDRLEGWYHTGDLAVVNEDGMIAIQDRKKDIIISGGENISSVELEDALFDHDAVGDVAVIPAPSEKWGETPKAFVVPANGDVENPGVTAEELTAYTRDRLAGYKAIREFEFVAEIPKTATGKIQKYELRKREWDDEERMVGQG
notes: 59 kDa subunits; gene amplified from genomic DNA; source: H. volcanii H1209 (plasmid pTA963, homologous overexpression), purified (Ni-NTA, Superdex 200)
stoichiometry N [5]: 2

B5: AMP-forming acetyl-CoA synthetase ACS1 from Haloferax volcanii, recombinant (enzyme, UniProt D4GUW1 1-662, looked up)
chain: MADGDTELEARLVEQEEFEPSEEFVAQANVSDPAVYDEFEENWPDCWERAAEMLDWDEKYDEVLDDSNPPFYEWFTGGKLNVSYNCVDRHVENGDKNRVAIKWEGEHGETRTYTYQDLYREVNEFAAALRDLGVEEDDVVTLYMPMIPELPIAMLACARIGAPHSVVFGGFSAEALATRMNAADSRFLVTCDGYYRRGDPLDHLDKANEGLDGVDHGVDATVVVDRLGDDGFDHDLKGNQHDWDDLLDEHAGERIDPVERDAEDMLFLMYTSGTTGQPKGVKHTTGGYLAYAAWTSHAVLDIEKEDTYWCSADIGWITGHSYIVYGPLALGTTTVMYEGTPDFPNRDRLWDIIEKYAVDIFYTAPTAIRAFMKWGSRFPEQHDLSSLRLLGTVGEPINPRAWKWYYKHIGNEDCPVVDTWWQTETGGMMITTLPGIKKMKPGSAGPPLPGIDAQIVDTSGKQVDAGRAGYLTVNKPWPGMLRTLYKNDERFIQEYWQEYSDTDSDDPDDWVYFPEDGAKIDGDDYITILGRVDDVINVSGHRLGTMEIESAIVGVEGVAEAAVVGGNHEVKGEAVYAYVITEEGQDEDDEMRGRIIEGVEDAIGPIARPEMVVFTPELPKTRSGKIMRRLLEEIANGEELGDTTTLRNPEVVESIQRQVESE
notes: AMP-forming acetyl-CoA synthetase ACS1 of Haloferax volcanii, gene acs1, locus tag HVO_0894; calculated subunit 71.2 kDa; gene amplified from genomic DNA; also called HVO_0894; source: H. volcanii H1209 (plasmid pTA963, homologous overexpression), purified (Ni-NTA, Superdex 200)
Km (purified protein [2]; [14]): 0.09 mM | Vmax (purified protein [2]; [14]): 0.4 µmol/min/mg | Km (purified protein [7]): 0.57 mM | Vmax (purified protein [7]): 0.25 µmol/min/mg | Km (purified protein [3]; MgCl2, 1 M KCl, pH 7.0, 42°C): 0.73 mM | Km (purified protein [4]; MgCl2, 1 M KCl, pH 7.0, 42°C): 0.48 mM | stoichiometry N [6]: 2

B6: Mae2 (Haloferax volcanii DS2) (protein)
chain: MTLGDDARDYHRRPPAGKVEIATTKPTNTQRDLSLAYSPGVAAPCRDIAEDENAAYEYTAKGNLVGVVSNGSAVLGLGDIGAQASKPVMEGKGVLFKRFADIDVFDVEFDHDDPQAFVESVAAMEPTFGGINLEDIRAPECFEIEESLRERMDIPVFHDDQHGTAIISGAALLNAADIADKELSSLNVTFSGAGAAATATARFYVSLGIPHENITLCDIDGVLSESRAEAGELDEYAEPFARGVDDGDLEDAMEGADVLVGLSVGGIVSQETVRSMADDPIIFAMANPEPEIAYEDAKEARDDTVIMATGRSDYPNQVNNVLGFPFIFRGALDVRATEINEEMKRAAAEALANLARQDVPDAVVKAYGDGPLQFGPDYLIPKPLDQRVLYEVTPAVAEAAMKSGAARRERDLDDYREELEARLGKSREMMRVVLNKAASNPKRVVLAEGEDEKMIRAASQLVEEGIAEPILVGRTKEILRTAEDLGLDFDPTIADPESGEWNHYVDHLYERRQRKGLTRTEAAELVRGDSNYFASVMVEVGDADAMLTGLTHHYPSALRPPLQIIGTADDADYAAGVYMLTFRNRVIFCADATVNLDPDENVLAEVTKHTAELARRFNVEPRAALLSYSDFGSVTNEGTRKPRNAVEQLHADPDVDFPVDGEMQADTALVEEMLTDTYDFAELDDPANVLVFPNLEAGNIGYKLLQRLGGAEAIGPMLVGMDKPVHVLQRGDEVKDIVNLAGVAVVDAQSE
notes: full length with C-terminal PTA domain, Ni-NTA purified, homologous expression in H. volcanii; 530 kDa, subunit 81 kDa
Km (purified protein [8]; 10 mM malate, MnCl2, […] KCl, pH 7.0, 42°C): 0.1 mM | Km (purified protein [9]): 0.15 mM

B7: Mae1 (Haloferax volcanii DS2) (protein)
chain: MGLDDDSRKYHRQDPPGKIEIATTKPTNTQRDLSLAYSPGVAAPCLDIAEDEDAAYEYTAKGNLVGVVSNGSAVLGLGDIGAQASKPVMEGKGVLFKRFADIDVFDVELDIADVDDFVAATKAMEPTFGGINLEDIKAPECFEIERQLREQMDIPVFHDDQHGTAIISGAALLNAADIVDKDLDELDIVFSGAGASALATARFYVSLGAKKENITMCDSSGIITESRVEDGDVNKYKAEFAKPVDEGSLSDAMEGADVLAGLSVGGIVSQEMVRSMADNPVIFAMANPDPEITYEDAKDARDDTVIMATGRSDYPNQVNNVLGFPFIFRGALDVRATEINEAMKRAAAEALAELARQDVPDAVVKAYGDHPLQFGADYVIPKPLDPRVLFEVAPAVAQAAMTSGAARERLDMNAYREELEARLGKSREMMRVVLNKAKSNPKRVALAEGEDEKMIRAAYQMQEEGIAEPILVGETTTILRKAEELGLDFDPTIANPRDGEWDHYVDRLYELRQRKGVTNSEAEELVRRDSNYFASVMVEVGDADAMLTGLTHHYPSALRPPLQIIGTADDADYAAGVYMMTFKNRVVFCADTTVNLDPDEEVLAEITKHTADLARQFNVEPRAALLSYSNFGSVTNEGTRKPRDAAALLQDDPEVDFPVDGEMQADTALVEDILEGTYDFAELDGPANVLVFPNLEAGNIGYKLLQRLGGAEAIGPMLVGMDKPVHVLQRGDEVKDIVNLAATAVVDAQEE
notes: full length with C-terminal PTA domain, Ni-NTA purified, homologous expression in H. volcanii
Km (purified protein [10]): 0.65 mM | Km (purified protein [8]; L-malate, MnCl2, 4 M KCl, pH 5.75, 42°C): 0.06 mM | Km (purified protein [11]): 0.1 mM
